One test concerns the target T1, human S100A5 (human).
T1 sequence (P33763 1-92, looked up): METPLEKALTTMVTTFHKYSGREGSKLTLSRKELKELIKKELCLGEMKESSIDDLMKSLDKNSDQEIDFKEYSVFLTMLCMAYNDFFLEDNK
Nature of the test: ITC. On the technique in general: ITC needs no label: the signal is the heat of the interaction.

For another test, the target named is human S100A6 (human). Nature of the test: ITC.

In doi:10.1101/207324 one finds Kd data, which are given here for one substance.

As to “peptide from Siah-interacting protein (SIP) (from UniProt Q9HB71 188-218)”, the Kd with human S100A5 (human) was above 100 µM; in the test with human S100A6 (human), 20 µM.

The Kd is the free concentration of one partner at which half of the binding sites on the other are occupied at equilibrium, for simple one-to-one binding.
